Test results published in doi:10.1101/2023.06.19.545549, “DnaK duplicates and regionally evolves for the increase of proteomic complexity in bacteria” (bioRxiv, 2023).

Target: the molecule itself
Experiment: SDS-PAGE of the purified protein (monomer and dimer bands); purified MxDnaKs and chimeras on SDS-PAGE without DTT treatment; band compositions confirmed by LC/MS

B1: His6-MxDnaK2, purified recombinant (natural protein, Myxococcus xanthus DK1622, UniProt P95334 1-607, looked up)
chain: MGKVIGIDLGTTNSCVAVMEGGEPVVIPNSEGSRTTPSMVGFTDSGERLVGQIAKRQAITNPENTVFAAKRLIGRKFDSPEGKKAIGVSPFKVASSPNGDAWVEIRGKGYSPPEVSAIVLMKMKQTAEDYLGEQVSEAVITVPAYFNDSQRQATKDAGRIAGLSVLRIINEPTAAALAYGLDKVQDGGTERIAVYDLGGGTFDISILELNAGVFEVKSTNGDTFLGGEDFDQRLIDYLAKRFAESNNGLDLRKDRMALQRLKEAAERAKHELSSAPETEVNLPFITADASGPKHLTETVDRATFEALVTDLIDRTIEPCRIALKDAGIPAQQINQVLLVGGMTRMPRVQQKVKEFFGREPHKGINPDEVVAVGAAIQGGVLKGEVKDVLLLDVTPLSLGVETAGGVFTKIIDKNTTIPCKKSQVFSTAVDNQPLVSVHVLQGEREMAADNKTLARFELVGIPPAPRGVPQIEVSFDIDANGIVHVSAKDLGTGKVQQVRVVSNSGLSEAEIQAMISDAQSHASDDKKKKELAELRNNADGLIYTTEKSLEEYASLLSEKDREEIKADLERLKEVLNTSDAAVLKESFQRLEGSAYRIADAIYTGQAS
notes: MxDnaK2 (MXAN_6671), DnaK of Myxococcus xanthus DK1622; gene amplified from genomic DNA into pET28A; His6-MxDnaK2 printed as 65.3 kDa; source: E. coli BL21 (DE3), purified (Ni-NTA); not shown: His6, N-terminal, kept
stoichiometry N: 2
